Data on 16 sequences can be found in the nanobody polyreactivity screen of Harvey et al. (2022).

A short description of this data set: yeast display, Sf9 membrane polyspecificity reagent, FACS + sequencing; frameworks hold sequencing errors. The gist of the method: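 A nanobody's polyreactivity label depends on the gate it was sorted from. Yeast display cells were stained with 10% biotinylated, detergent-solubilized Sf9 membrane reagent for 1 hour at 4 °C, enriched on streptavidin microbeads and sorted by FACS. The low and high (top ~1%) gates were set on anti-HA fluorescence for expression and streptavidin fluorescence for reagent binding.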
For “QVQLVESGGGLVQAGGSLRLSCAASGYFDLNAMGWYRQAPGKERELVAAITDGGSTNYADSVKGRFTISRDNAKNTVYLQMNSLKPEDTAVYYCAADRGHTILHGGHWGQGTQVTVSS”, the “polyreactivity (PSR sort gate)” value is “low polyreactivity”.
The entry for “QVQLVESGGGLVQAGGSLRLSCAASGYIFAAYTMGWYRQAPGKEREFVAAITRSGGSTYYADSVKWRFTISRDNAKNTVYLQMNSLKPEDTAVYYCAARRWRYFPDYDYWGQGTQVTVSS” is “high polyreactivity”.
The entry for “QVQLVESGGGLVQAGGSLRLSCAASGYIFAINAMGWYRQAPGKERELVAAIRSGGRTYYADSVKGRFTISRDKAKNTVYLQMNSLKPEDTAVYYCNAGGKWIGSDYWGQGTQVTVSS” is “high polyreactivity”; for “QVQLVESGGGLVQAGGSLRLSCAASGYIFAIYAMGCYRQAPGKERELVAAISTSGGSTYYADSVKGRFTISRDNAKNTVYLQMNSLKPDDTAVYYCARPTTYGYYYWGQGTQVTVSS” it is “high polyreactivity”; for “QVQLVESGGGLVQAGGSLRLSCAASGYIFDDYAMGWYRQAPGKERELVAAISRGGSTYYADSVKGRFTISRDNSKNTVYLQMNSLKPEDTEVYYCAAVYRVRRITYVYWGQGTQVTVSS” it is “high polyreactivity”.
“QVQLVESGGGLVQAGGSLRLSCAASGYIFDKNAMGWYRQAPGKERELVAAITSSGGRTYYADSVKGRFTISRDNAKNTVYLQMNSLKPEDTAVYYCNKLYRTSGEYVYWGQGTQVTVSS”: the “polyreactivity (PSR sort gate)” value was “high polyreactivity”.
“QVQLVESGGGLVQAGGSLRLSCAASGYIFDPNAMGWYRQAPGKERELVAAISGSGTSTYYADSVKGRFTISRDNAKNTVYLQMNSLKPEDTAVYYCAAAHDAGPVRYYYWGHGTQVTVSS”: the “polyreactivity (PSR sort gate)” value was “low polyreactivity”.
Take “QVQLVESGGGLVQAGGSLRLSCAASGYIFGHYTMGWYRPAPGKEGELVAGITRGTRTYYADSVKGRFTISRDNAKNTVYLQMNSLKPEDTAVYYCAKRGPVRTQYTYYYWGQGTQVTVSS”: the “polyreactivity (PSR sort gate)” value is “high polyreactivity”.
Regarding “QVQLVESGGGLVQAGGSLRLSCAASGYIFGPYAMGWYRQAPGKERELVAAITWRGGRTYADSVKGRFTISRDNAKNTVYLQMNSLKPEDTAVYFCATETGYSPFVYYSGRYGYWGQGTQVNVSS”, the “polyreactivity (PSR sort gate)” value is “high polyreactivity”.
On to “QVQLVESGGGLVQAGGSLRLSCAASGYIFGQNAMGWYRPAPRKERELVASISDGGSTYYADSVKGRFTISRDNAKNTVYLQMNSLKPEDTAVYYCAAGQYWGEKALGAWLFDYWGQGTQLTVSS”, for which the “polyreactivity (PSR sort gate)” value is “low polyreactivity”.
“QVQLVESGGGLVQAGGSLRLSCAASGYIFGQNARGLYRQAPGKERELGASMSDGGSTYYADSVKGRFTISRDNAKNTVYLQLNSLKPEDTAVYYCAAYYSYGSTSHTYTCFDYWGQGTQVTVSS”: the “polyreactivity (PSR sort gate)” value is recorded as “low polyreactivity”.
With “QVQLVESGGGLVQAGGSLRLSCAASGYIFGQYAMGWYRQAPGKERELVADITRGGDTYYADSVKGRFTISRDNAKNTVYLQMNSLKPEDTAVYYCAAEQGRTSYRYYYWGQGTQVTVSS”, the “polyreactivity (PSR sort gate)” value was “high polyreactivity”.
Consider “QVQLVESGGGLVQAGGSLRLSCAASGYIFGRNAMGWYRQAPGKEREFVAAISYSGSSTYYADSVKGRFTISRDNAKNTVYLQMNSLKPEDTAVYYCNAVYYRSRFGTSIRYDYWGQGTQVTVSS”, for which the “polyreactivity (PSR sort gate)” value is on record as “high polyreactivity”.
For “QVQLVESGGGLVQAGGSLRLSCAASGYIFGYNAMGWYRPAPGKERELVATITWRGGSTYYADSVKGRFTISRDNAKNTVYLQMNSLKPEDTAVYYCAAVRWVRYRTSAYEYWGQGTQVTVSS”, the “polyreactivity (PSR sort gate)” value is “high polyreactivity”.
Turning to “QVQLVESGGGLVQAGGSLRLSCAASGYIFGYYTMGWYRQAPGKERELVATIRSGGSTYYADSVKGRFTISRDNAKNTVYLQMNSLKPEDTAVYYWAKRVRRISEYGYWGQGTQVTVSS”, the “polyreactivity (PSR sort gate)” value is “high polyreactivity”.
As to “QVQLVESGGGLVQAGGSLRLSCAASGYIFGYYVMGWYRQAPGKERELVAAISGRGGRTYYADSVKGRFTISRDNAKNTVYLQMNSLKPEDTAVYYCAAADLPGTMYYWGQGTQVTVSS”, the “polyreactivity (PSR sort gate)” value is “high polyreactivity”.
